# Reference: the DeepSol protein solubility set
# Test: soluble on expression in E. coli; label from the status in PepcDB or PDB records
row,Sequence,soluble on expression in E. coli
1,MGSSHHHHHHGKTIFVIVPTNEEQVAFLEALAKQDELNFDWQNPPTEPGQPVVILIPSDMVEWFLEMLKAKGIPFTVYVEEGGSENLYFQGGGGGGAQCVRRLVLAATLAAAVALLLCTSSAPVARAAGTGDFTAAQRTNTLAVLQAFGRAIPKLGEKWAGNDFCSWEAVLCNAPDVYVSGISPTYAGTLPEMPVNVDYRHVVIKQLDFSEMGPGLSGTLPASWHSMTSLESLSIEKCESISGSVPPEWGSMTSLSVLNLRGTGISGTLPPQWSGMSKARSLQLQDCDLSGSLPSSWSAIPMLASVSLKGNKFCGVCRTRGIRRLVLLWTSRTSTRAATAWLLRTAQRPPLSPPPRQRPPRTSLTFPLRRGPRLSRLPQPALRHRLNPQPPLRHRLNPRPLLPQQTRRLLHQRRSARWMGVRCARGTPLRGARGAVRTTS,not soluble
2,MGSSHHHHHHGKTIFVIVPTNEEQVAFLEALAKQDELNFDWQNPPTEPGQPVVILIPSDMVEWFLEMLKAKGIPFTVYVEEGGSENLYFQGGGGGGFVPNWYQHPDPALKYADDMEVYDYYQQYEAAKKAAREASTSSKKTAATSPALPRAKPHVTIA,soluble
3,MGSSHHHHHHGKTIFVIVPTNEEQVAFLEALAKQDELNFDWQNPPTEPGQPVVILIPSDMVEWFLEMLKAKGIPFTVYVEEGGSENLYFQGGGGGGTCMMGLEIRPKVVSFAQEKALALRQENAASLTQHYRNVWFEQMNVMKFGSNCFTKGQLSRLFFCYPDPHWKRKNIRRRIISPGLVQEYAYWLRHGGLVYTVSDVAELEEWMVQCLDDSPLFRRLAEAELCTPEHKQVLEIVTGASEDAQRTARKGLQKHFAVHMRI,not soluble
4,MGSSHHHHHHSSGENLYFQGHMDVLASGEKSRMLFERTKELFPGGVNSPVRAAVKPYPFYVKRGEGAYLYTVDGARIVDLVLAYGPLILGHKHPRVLEAVEEALARGWLYGAPGEAEVLLAEKILGYVKRGGMIRFVNSGTEATMTAIRLARGYTGRDLILKFDGCYHGSHDAVLVAAGSAAAHYGVPTSAGVPEAVARLTLVTPYNDVEALERVFAEYGDRIAGVIVEPVIANAGVIPPRREFLAALQRLSRESGALLILDEVVTGFRLGLEGAQGYFNIEGDIIVLGKIIGGGFPVGAVAGSREVMSLLTPQGKVFNAGTFNAHPITMAAGLATLKALEEEPVYSVSREAAKALEEAASEVLDRTGLPYTINRVESMMQLFIGVEEVSNAAQARKADKKFYVKLHEEMLRRGVFIAPSNLEAVFTGLPHQGEALEIAVEGLRSSLKTVLGS,soluble
5,MGSSHHHHHHSSGLVPRGSHADYEVVHDTFEVNFDGWCNLGVDTYLTAVENEGNNGTRGMMVINRSSASDGAYSEKGFYLDGGVEYKYSVFVKHNGTGTETFKLSVSYLDSETEEENKEVIATKDVVAGEWTEISAKYKAPKTAVNITLSITTDSTVDFIFDDVTITRKGMAEANTVYAANAVLKDMYANYFRVGSVLNSGTVNNSSIKALILREFNSITCENEMKPDATLVQSGSTNTNIRVSLNRAASILNFCAQNNIAVRGHTLVWHSQTPQWFFKDNFQDNGNWVSQSVMDQRLESYIKNMFAEIQRQYPSLNLYAYDVVNAAVSDDANRTRYYGGAREPGYGNGRSPWVQIYGDNKFIEKAFTYARKYAPANCKLYYNDYNEYWDHKRDCIASICANLYNKGLLDGVGMQSHINADMNGFSGIQNYKAALQKYINIGCDVQITELDISTENGKFSLQQQADKYKAVFQAAVDINRTSSKGKVTAVCVWGPNDANTWLGSQNAPLLFNANNQPKPAYNAVASIIPQSEWGDGNNPA,soluble
6,MGSSHHHHHHSSGLVPRGSHELGGRVSGSLAWRVARGETGLERKEILFIPSENEKISKQFHLRYDIVRDRYIRVSDNNTNISGWENGVWKMESIFRKVEKDWNMVYLARKEGSSFAYISWKFECGSAGLKVDTVSIRTSSQSFESGSVRWKLRSETAQVNLLGDKNLRSYNDFSGATEVTLEAELSRGDGDVAWQHTQLFRQSLNDSGENGLEIIITFNDL,soluble
7,MGSSHHHHHHSSGLVPRGSHMETLCQRLNVCQDKILTHYENDSTDLRDHIDYWKHMRLECAIYYKAREMGFKHINHQVVPTLAVSKNKALQAIELQLTLETIYNSQYSNEKWTLQDVSLEVYLTAPTGCIKKHGYTVEVQFDGDICNTMHYTNWTHIYICEEASVTVVEGQVDYYGLYYVHEGIRTYFVQFKDDAEKYSKNKVWEVHAGGQVILCPTSVFS,soluble
8,MGSSHHHHHHSSGLVPRGSHMGLQDYQRLHKESIEDPAKFFGSKATQFLNWSKPFDKVFIPDPKTGRPSFQNNAWFLNGQLNACYNCVDRHALKTPNKKAIIFEGDEPGQGYSITYKELLEEVCQVAQVLTYSMGVRKGDTVAVYMPMVPEAIITLLAISRIGAIHSVVFAGFSSNSLRDRINDGDSKVVITTDESNRGGKVIETKRIVDDALRETPGVRHVLVYRKTNNPSVAFHAPRDLDWATEKKKYKTYYPCTPVDSEDPLFLLYTSGSTGAPKGVQHSTAGYLLGALLTMRYTFDTHQEDVFFTAGDIGWITGHTYVVYGPLLYGCATLVFEGTPAYPNYSRYWDIIDEHKVTQFYVAPTALRLLKRAGDSYIENHSLKSLRCLGSVGEPIAAEVWEWYSEKIGKNEIPIVDTYWQTESGSHLVTPLAGGVTPMKPGSASFPFFGIDAVVLDPNTGEELNTSHAEGVLAVKAAWPSFARTIWKNHDRYLDTYLNPYPGYYFTGDGAAKDKDGYIWILGRVDDVVNVSGHRLSTAEIEAAIIEDPIVAECAVVGFNDDLTGQAVAAFVVLKNKSSWSTATDDELQDIKKHLVFTVRKDIGPFAAPKLIILVDDLPKTRSGKIMRRILRKILAGESDQLGDVSTLSNPGIVRHLIDSVKL,soluble
9,MGSSHHHHHHSSGLVPRGSHMKNYARISCTSRYVPENCVTNHQLSEMMDTSDEWIHSRTGISERRIVTQENTSDLCHQVAKQLLEKSGKQASEIDFILVATVTPDFNMPSVACQVQGAIGATEAFAFDISAACSGFVYALSMAEKLVLSGRYQTGLVIGGETFSKMLDWTDRSTAVLFGDGAAGVLIEAAETPHFLNEKLQADGQRWAALTSGYTINESPFYQGHKQASKTLQMEGRSIFDFAIKDVSQNILSLVTDETVDYLLLHQANVRIIDKIARKTKISREKFLTNMDKYGNTSAASIPILLDEAVENGTLILGSQQRVVLTGFGGGLTWGSLLLTLEF,soluble
10,MGSSHHHHHHSSGLVPRGSHMLKFDVNTSAVQVLIEHIGNLDRAYEFAERCNEPAVWSQLAKAQLQKGMVKEAIDSYIKADDPSSYMEVVQAANTSGNWEELVKYLQMARKKARESYVETELIFALAKTNRLAELEEFINGPNNAHIQQVGDRCYDEKMYDAAKLLYNNVSNFGRLASTLVHLGEYQAAVDGARKANSTRTWKEVCFACVDGKEFRLAQMCGLHIVVHADELEELINYYQDRGYFEELITMLEAALGLERAHMGMFTELAILYSKFKPQKMREHLELFWSRVNIPKVLRAAEQAHLWAELVFLYDKYEEYDNAIITMMNHPTDAWKEGQFKDIITKVANVELYYRAIQFYLEFKPLLLNDLLMVLSPRLDHTRAVNYFSKVKQLPLVKPYLRSVQNHNNKSVNESLNNLFITEEDYQALRTSIDAYDNFDNISLAQRLEKHELIEFRRIAAYLFKGNNRWKQSVELCKKDSLYKDAMQYASESKDTELAEELLQWFLQEEKRECFGACLFTCYDLLRPDVVLETAWRHNIMDFAMPYFIQVMKEYLTKVDKLDASESLRKEEEQATETQPIVYGQPQLMLTAGPSVAVPPQAPFGYGYTAPAYGQPQPGFGYSM,soluble
11,MGSSHHHHHHSSGLVPRGSHMQIHTLTIRHGRSDPETVRSLLGQDQVLVVDYDAIHHHVINTAEYTYLSHMFDIIVLNLSGKLNDIIDTIMAGAAMVVIDPSVQEKRLREFFDITENIAMPYRGDGHSEAFSQLGGQYFVTDREIGYPFKLAYSTTDISGDRYIRVLDFPQDISDMIFERA,soluble
12,MGSSHHHHHHSSGLVPRGSHMRQLTEEETKVVFEKLAGYIGRNISFLVDNKELPHVFRLQKDRVYYVPDHVAKLATSVARPNLMSLGICLGKFTKTGKFRLHITSLTVLAKHAKYKIWIKPNGEMPFLYGNHVLKAHVGKMSDDIPEHAGVIVFAMNDVPLGFGVSAKSTSESRNMQPTGIVAFRQADIGEYLRDEDTLFT,soluble
13,MGSSHHHHHHSSGLVPRGSHMSLKHFLNTQDWSRAELDALLTQAALFKRNKLGSELKGKSIALVFFNPSMRTRTSFELGAFQLGGHAVVLQPGKDAWPIEFNLGTVMDGDTVEHIAEVARVLGRYVDLIGVRAFPKFVDWSKDREDQVLKSFAKYSPVPVINMETITHPCQELAHALALQEHFGTPDLRGKKYVLTWTYHPKPLNTAVANSALTIATRMGMDVTLLCPTPDYILDERYMDWAAQNVAESGGSLQVSHDIDSAYAGADVVYAKSWGALPFFGNWEPEKPIRDQYQHFIVDERKMALTNNGVFSHCLPLRRNVKATDAVMDSPNCIAIDEAENRLHVQKAIMAALVGQSRP,soluble
14,MGSSHHHHHHSSGLVPRGSHMSLYREVDAFRVDDERRRVPEKVVNDIEVRIRINGGMEQRFTASPQALEEFATGYLLGEGLVDSVDDIVSIEISDNIIDAEIESGDLDIRRELVMGSDCFGGWRQRVEMVGPVDSDLRVRADDIFLAFKRMVKSAVVWRMTGGTHVAALVTGDEFRVFEDVSRHVAVDKVIGSGAMDGVNFRESFIVYSGRMPADMLIKVVRAGVPIIASNAAPTSSGYDAAQRTGLTMLGFVRGKRFNIYSHPERII,soluble
15,MGSSHHHHHHSSGRENLYFQGMRHKIRLIDFILLRFIEERMKVARDVAKEKKKTDSPIVIRDIEEQKIKEILDRTDLNPVRMRRIFEEIMKLAKEEEYRLLGISKTVAVLGPMGSFSDEMAMKLIGSRIPLKYCSTTDEIIEMVEKGEVDYGIVPIENSTYGTVIPVLDALLNHEVEVFGEAKLEIHHCLVAKKKLDLKEIKRIYSHPQAISQSLGFINTYLSHAEIRYTSSTSDAVNLLDDESAAIMSESAAKMYGLLILRRSIQDLKEKNITRFYIIRRKTGKMEGKYTSLFFGVQDRPGSLKAVLDIFASRGINLRKLESRPARTFLGDYVFFVEVEAPLKEEDIRDLERVTAFYKIIGVFDEVEELDVFK,soluble
16,MGSWGMEALESDEGLDLINWVEEQLQDDSTFDAESIVQRLSQHEDLFGFQGDEEFLYDNNVIGLVELIIQKAAGEKITSSKQIDQLDSYRLTSIFSKKLQGRLQTIDDTHEWIMLFEGRAREKAKAYLIEITDKLRVVKTTA,soluble
17,MGTIKIVTDSSITIEPELIKALDITVVPLSVMIDSKLYSDNDLKEEGHFLSLMKASKSLPKTSQPPVGLFAETYENLVKKGVTDIVAIHLSPALSGTIEASRQGAEIAEAPVTVLDSGFTDQAMKFQVVEAAKMAKAGASLNEILAAVQAIKSKTELYIGVSTLENLVKGGRIGRVTGVLSSLLNVKVVMALKNDELKTLVKGRGNKTFTKWLDSYLAKNSHRPIAEIAISYAGEASLALTLKERIAAYYNHSISVLETGSIIQTHTGEGAFAVMVRYE,soluble
18,MGTSFRQYFKIVPALTEELKREAYRVRHSVYCEDLQFESSRSDGFEIDEYDAHSLHLLIRSINNDTFIGCTRIIRPSSNSNDRRLPFEKTCAQTLDRSIIDPSRLPADKIGEVSRLAVIAAFRRRKGEKNHPINISEEDFSTGPMMRFPYIPLSLYIGTIELARIHDIRVLFMLTEERLASHFSRLGAQLEPIGAPVEHRGLRFPSMVEINSIISNMRPIFRPLYQAIAEDIKAELEKKNH,not soluble
